*1 amine or outer side, *2 acyl side, *3 side chain or, on linkers, in order; H or OH if unused. Where no end group is shown, it is not given here. Side-chain parts run from the residue outwards. [ ]: non-standard residue; d: D form. The star is where a group is joined. γGlu = O=C(O)[C@H](CCC(=O)[*:2])N[*:1]; Palmitoyl = CCCCCCCCCCCCCCCC(=O)*; Aib = CC(C)(N)C(=O)O
T1: human GIP receptor (human, UniProt P48546 22-466)
T1 sequence (looked up): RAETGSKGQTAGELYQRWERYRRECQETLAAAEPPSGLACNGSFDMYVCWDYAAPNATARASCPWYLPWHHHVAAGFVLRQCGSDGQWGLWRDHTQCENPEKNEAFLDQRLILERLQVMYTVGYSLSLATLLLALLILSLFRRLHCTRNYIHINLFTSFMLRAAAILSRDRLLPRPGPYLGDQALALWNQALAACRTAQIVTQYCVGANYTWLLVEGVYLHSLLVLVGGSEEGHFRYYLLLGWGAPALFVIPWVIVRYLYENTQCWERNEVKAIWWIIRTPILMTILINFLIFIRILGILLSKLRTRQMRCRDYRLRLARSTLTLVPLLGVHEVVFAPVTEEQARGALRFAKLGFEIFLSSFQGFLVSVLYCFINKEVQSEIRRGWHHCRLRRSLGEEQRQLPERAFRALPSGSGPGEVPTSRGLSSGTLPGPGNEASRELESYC

B1: SEQ ID NO: 24 (peptide)
peptide: Y[Aib]EGTFTSDLSIQK([γGlu-Palmitoyl])ESRAA[Aib]DFIEWLKNTGPSSGAPPPS-NH2
modifications: N-terminus assumed
SMILES: CCCCCCCCCCCCCCCC(=O)N[C@@H](CCC(=O)NCCCC[C@H](NC(=O)[C@H](CCC(N)=O)NC(=O)[C@@H](NC(=O)[C@H](CO)NC(=O)[C@H](CC(C)C)NC(=O)[C@H](CC(=O)O)NC(=O)[C@H](CO)NC(=O)[C@@H](NC(=O)[C@H](Cc1ccccc1)NC(=O)[C@@H](NC(=O)CNC(=O)[C@H](CCC(=O)O)NC(=O)C(C)(C)NC(=O)[C@@H](N)Cc1ccc(O)cc1)[C@@H](C)O)[C@@H](C)O)[C@@H](C)CC)C(=O)N[C@@H](CCC(=O)O)C(=O)N[C@@H](CO)C(=O)N[C@@H](CCCNC(=N)N)C(=O)N[C@@H](C)C(=O)N[C@@H](C)C(=O)NC(C)(C)C(=O)N[C@@H](CC(=O)O)C(=O)N[C@@H](Cc1ccccc1)C(=O)N[C@H](C(=O)N[C@@H](CCC(=O)O)C(=O)N[C@@H](Cc1c[nH]c2ccccc12)C(=O)N[C@@H](CC(C)C)C(=O)N[C@@H](CCCCN)C(=O)N[C@@H](CC(N)=O)C(=O)N[C@H](C(=O)NCC(=O)N1CCC[C@H]1C(=O)N[C@@H](CO)C(=O)N[C@@H](CO)C(=O)NCC(=O)N[C@@H](C)C(=O)N1CCC[C@H]1C(=O)N1CCC[C@H]1C(=O)N1CCC[C@H]1C(=O)N[C@@H](CO)C(N)=O)[C@@H](C)O)[C@@H](C)CC)C(=O)O
B2: SEQ ID NO: 25 (peptide)
peptide: Y[Aib]EGTFTSDLSIQK([γGlu-Palmitoyl])ESRAAQEFIEWLKNTGPSSGAPPPS-NH2
modifications: N-terminus assumed
SMILES: CCCCCCCCCCCCCCCC(=O)N[C@@H](CCC(=O)NCCCC[C@H](NC(=O)[C@H](CCC(N)=O)NC(=O)[C@@H](NC(=O)[C@H](CO)NC(=O)[C@H](CC(C)C)NC(=O)[C@H](CC(=O)O)NC(=O)[C@H](CO)NC(=O)[C@@H](NC(=O)[C@H](Cc1ccccc1)NC(=O)[C@@H](NC(=O)CNC(=O)[C@H](CCC(=O)O)NC(=O)C(C)(C)NC(=O)[C@@H](N)Cc1ccc(O)cc1)[C@@H](C)O)[C@@H](C)O)[C@@H](C)CC)C(=O)N[C@@H](CCC(=O)O)C(=O)N[C@@H](CO)C(=O)N[C@@H](CCCNC(=N)N)C(=O)N[C@@H](C)C(=O)N[C@@H](C)C(=O)N[C@@H](CCC(N)=O)C(=O)N[C@@H](CCC(=O)O)C(=O)N[C@@H](Cc1ccccc1)C(=O)N[C@H](C(=O)N[C@@H](CCC(=O)O)C(=O)N[C@@H](Cc1c[nH]c2ccccc12)C(=O)N[C@@H](CC(C)C)C(=O)N[C@@H](CCCCN)C(=O)N[C@@H](CC(N)=O)C(=O)N[C@H](C(=O)NCC(=O)N1CCC[C@H]1C(=O)N[C@@H](CO)C(=O)N[C@@H](CO)C(=O)NCC(=O)N[C@@H](C)C(=O)N1CCC[C@H]1C(=O)N1CCC[C@H]1C(=O)N1CCC[C@H]1C(=O)N[C@@H](CO)C(N)=O)[C@@H](C)O)[C@@H](C)CC)C(=O)O
B3: SEQ ID NO: 26 (peptide)
peptide: Y[Aib]EGTFTSDLSIQK([γGlu-Palmitoyl])EKRAAQEFIEWLKNTGPSSGAPPPS-NH2
modifications: N-terminus assumed
SMILES: CCCCCCCCCCCCCCCC(=O)N[C@@H](CCC(=O)NCCCC[C@H](NC(=O)[C@H](CCC(N)=O)NC(=O)[C@@H](NC(=O)[C@H](CO)NC(=O)[C@H](CC(C)C)NC(=O)[C@H](CC(=O)O)NC(=O)[C@H](CO)NC(=O)[C@@H](NC(=O)[C@H](Cc1ccccc1)NC(=O)[C@@H](NC(=O)CNC(=O)[C@H](CCC(=O)O)NC(=O)C(C)(C)NC(=O)[C@@H](N)Cc1ccc(O)cc1)[C@@H](C)O)[C@@H](C)O)[C@@H](C)CC)C(=O)N[C@@H](CCC(=O)O)C(=O)N[C@@H](CCCCN)C(=O)N[C@@H](CCCNC(=N)N)C(=O)N[C@@H](C)C(=O)N[C@@H](C)C(=O)N[C@@H](CCC(N)=O)C(=O)N[C@@H](CCC(=O)O)C(=O)N[C@@H](Cc1ccccc1)C(=O)N[C@H](C(=O)N[C@@H](CCC(=O)O)C(=O)N[C@@H](Cc1c[nH]c2ccccc12)C(=O)N[C@@H](CC(C)C)C(=O)N[C@@H](CCCCN)C(=O)N[C@@H](CC(N)=O)C(=O)N[C@H](C(=O)NCC(=O)N1CCC[C@H]1C(=O)N[C@@H](CO)C(=O)N[C@@H](CO)C(=O)NCC(=O)N[C@@H](C)C(=O)N1CCC[C@H]1C(=O)N1CCC[C@H]1C(=O)N1CCC[C@H]1C(=O)N[C@@H](CO)C(N)=O)[C@@H](C)O)[C@@H](C)CC)C(=O)O
B4: SEQ ID NO: 27 (peptide)
peptide: Y[Aib]EGTFTSDLSIQK([γGlu-Palmitoyl])EKRAA[Aib]DFIEWLKNTGPSSGAPPPS-NH2
modifications: N-terminus assumed
SMILES: CCCCCCCCCCCCCCCC(=O)N[C@@H](CCC(=O)NCCCC[C@H](NC(=O)[C@H](CCC(N)=O)NC(=O)[C@@H](NC(=O)[C@H](CO)NC(=O)[C@H](CC(C)C)NC(=O)[C@H](CC(=O)O)NC(=O)[C@H](CO)NC(=O)[C@@H](NC(=O)[C@H](Cc1ccccc1)NC(=O)[C@@H](NC(=O)CNC(=O)[C@H](CCC(=O)O)NC(=O)C(C)(C)NC(=O)[C@@H](N)Cc1ccc(O)cc1)[C@@H](C)O)[C@@H](C)O)[C@@H](C)CC)C(=O)N[C@@H](CCC(=O)O)C(=O)N[C@@H](CCCCN)C(=O)N[C@@H](CCCNC(=N)N)C(=O)N[C@@H](C)C(=O)N[C@@H](C)C(=O)NC(C)(C)C(=O)N[C@@H](CC(=O)O)C(=O)N[C@@H](Cc1ccccc1)C(=O)N[C@H](C(=O)N[C@@H](CCC(=O)O)C(=O)N[C@@H](Cc1c[nH]c2ccccc12)C(=O)N[C@@H](CC(C)C)C(=O)N[C@@H](CCCCN)C(=O)N[C@@H](CC(N)=O)C(=O)N[C@H](C(=O)NCC(=O)N1CCC[C@H]1C(=O)N[C@@H](CO)C(=O)N[C@@H](CO)C(=O)NCC(=O)N[C@@H](C)C(=O)N1CCC[C@H]1C(=O)N1CCC[C@H]1C(=O)N1CCC[C@H]1C(=O)N[C@@H](CO)C(N)=O)[C@@H](C)O)[C@@H](C)CC)C(=O)O
B5: SEQ ID NO: 28 (peptide)
peptide: Y[Aib]QGTFTSDLSIQK([γGlu-Palmitoyl])DKRAAQDFIEWLKAGGPSSGAPPPS-NH2
modifications: N-terminus assumed
SMILES: CCCCCCCCCCCCCCCC(=O)N[C@@H](CCC(=O)NCCCC[C@H](NC(=O)[C@H](CCC(N)=O)NC(=O)[C@@H](NC(=O)[C@H](CO)NC(=O)[C@H](CC(C)C)NC(=O)[C@H](CC(=O)O)NC(=O)[C@H](CO)NC(=O)[C@@H](NC(=O)[C@H](Cc1ccccc1)NC(=O)[C@@H](NC(=O)CNC(=O)[C@H](CCC(N)=O)NC(=O)C(C)(C)NC(=O)[C@@H](N)Cc1ccc(O)cc1)[C@@H](C)O)[C@@H](C)O)[C@@H](C)CC)C(=O)N[C@@H](CC(=O)O)C(=O)N[C@@H](CCCCN)C(=O)N[C@@H](CCCNC(=N)N)C(=O)N[C@@H](C)C(=O)N[C@@H](C)C(=O)N[C@@H](CCC(N)=O)C(=O)N[C@@H](CC(=O)O)C(=O)N[C@@H](Cc1ccccc1)C(=O)N[C@H](C(=O)N[C@@H](CCC(=O)O)C(=O)N[C@@H](Cc1c[nH]c2ccccc12)C(=O)N[C@@H](CC(C)C)C(=O)N[C@@H](CCCCN)C(=O)N[C@@H](C)C(=O)NCC(=O)NCC(=O)N1CCC[C@H]1C(=O)N[C@@H](CO)C(=O)N[C@@H](CO)C(=O)NCC(=O)N[C@@H](C)C(=O)N1CCC[C@H]1C(=O)N1CCC[C@H]1C(=O)N1CCC[C@H]1C(=O)N[C@@H](CO)C(N)=O)[C@@H](C)CC)C(=O)O
B6: SEQ ID NO: 29 (peptide)
peptide: Y[Aib]QGTFTSDLSIQK([γGlu-Palmitoyl])DSRAAQEFIEWLKAGGPSSGAPPPS-NH2
modifications: N-terminus assumed
SMILES: CCCCCCCCCCCCCCCC(=O)N[C@@H](CCC(=O)NCCCC[C@H](NC(=O)[C@H](CCC(N)=O)NC(=O)[C@@H](NC(=O)[C@H](CO)NC(=O)[C@H](CC(C)C)NC(=O)[C@H](CC(=O)O)NC(=O)[C@H](CO)NC(=O)[C@@H](NC(=O)[C@H](Cc1ccccc1)NC(=O)[C@@H](NC(=O)CNC(=O)[C@H](CCC(N)=O)NC(=O)C(C)(C)NC(=O)[C@@H](N)Cc1ccc(O)cc1)[C@@H](C)O)[C@@H](C)O)[C@@H](C)CC)C(=O)N[C@@H](CC(=O)O)C(=O)N[C@@H](CO)C(=O)N[C@@H](CCCNC(=N)N)C(=O)N[C@@H](C)C(=O)N[C@@H](C)C(=O)N[C@@H](CCC(N)=O)C(=O)N[C@@H](CCC(=O)O)C(=O)N[C@@H](Cc1ccccc1)C(=O)N[C@H](C(=O)N[C@@H](CCC(=O)O)C(=O)N[C@@H](Cc1c[nH]c2ccccc12)C(=O)N[C@@H](CC(C)C)C(=O)N[C@@H](CCCCN)C(=O)N[C@@H](C)C(=O)NCC(=O)NCC(=O)N1CCC[C@H]1C(=O)N[C@@H](CO)C(=O)N[C@@H](CO)C(=O)NCC(=O)N[C@@H](C)C(=O)N1CCC[C@H]1C(=O)N1CCC[C@H]1C(=O)N1CCC[C@H]1C(=O)N[C@@H](CO)C(N)=O)[C@@H](C)CC)C(=O)O

How the values were obtained:
Test in all cases: cell-based or functional assay
human GIP receptor = target: T1, human GIP receptor
human GLP-1 receptor = human GLP-1 receptor (human, UniProt P43220 24-463)
human glucagon receptor = human glucagon receptor (human, UniProt P47871 26-477)
Sequence of human glucagon receptor (P47871 26-477): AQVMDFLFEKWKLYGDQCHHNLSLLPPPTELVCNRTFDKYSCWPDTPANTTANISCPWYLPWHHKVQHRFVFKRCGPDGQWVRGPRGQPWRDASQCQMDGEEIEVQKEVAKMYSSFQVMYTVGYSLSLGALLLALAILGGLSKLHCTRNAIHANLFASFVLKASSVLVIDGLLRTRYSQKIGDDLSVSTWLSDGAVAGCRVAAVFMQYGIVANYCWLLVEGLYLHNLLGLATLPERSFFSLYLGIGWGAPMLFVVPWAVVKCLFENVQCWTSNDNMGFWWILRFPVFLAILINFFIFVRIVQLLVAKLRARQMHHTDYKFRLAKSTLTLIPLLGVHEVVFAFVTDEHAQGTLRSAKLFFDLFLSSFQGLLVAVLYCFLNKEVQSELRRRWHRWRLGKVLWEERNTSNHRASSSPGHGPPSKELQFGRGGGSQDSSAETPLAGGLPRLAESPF

Binder | EC50 hGIP R [pM] (human GIP receptor) | EC50 hGLP-1 R [pM] (human GLP-1 receptor) | EC50 hGLUC R [pM] (human glucagon receptor)
B1 | 23.5 pM | 13.5 pM | 38900 pM
B2 | 73.6 pM | 9.5 pM | 20500 pM
B3 | 19.7 pM | 4.9 pM | 8510 pM
B4 | 6.7 pM | 4 pM | 6390 pM
B5 | 10.9 pM | 3.2 pM | 9.9 pM
B6 | 127 pM | 7 pM | 46.8 pM

From patent US20140206609A1 (Sanofi, published 2014)
